Measurements taken from patent publication US20210363269A1 (ALX ONCOLOGY, published 2021).

Columns and labels:
human SIRPγ isoform 1 [1] = biological target: T1, human SIRPγ isoform 1 (human, UniProt Q9P1W8 29-147); experiment: SPR
T1 construct: also called SIRPg; sirpg
Method in brief: (§1)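 scFv-Fc antibody clones were captured from pre-filtered culture media onto anti-human IgG Fc, amine-coupled at about 4000 RU on a GLC chip in a ProteOn XPR36 instrument. SIRP analytes were passed over in PBS pH 7.4 with 0.01% Tween-20 at 25° C, and responses were double-referenced against interspot and buffer-blank signals. Curves were fitted to a 1:1 Langmuir model. Dissociation rate constants (koff) were taken from those fits.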

[2] = biological target: T2, mouse 129 SIRP-α D1 domain (mouse (129 strain), UniProt P97797 32-150); experiment: SPR
T2 construct: also called m129
T2 chain: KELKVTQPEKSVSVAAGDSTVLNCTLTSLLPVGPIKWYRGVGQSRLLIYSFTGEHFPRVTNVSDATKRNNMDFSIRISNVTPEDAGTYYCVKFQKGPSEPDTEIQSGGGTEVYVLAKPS
Method in brief: as §1

[3] = biological target: T3, C57BL/6 mouse SIRP-α D1 domain (mouse (C57BL/6 strain), UniProt P97797 32-148); experiment: SPR
T3 sequence: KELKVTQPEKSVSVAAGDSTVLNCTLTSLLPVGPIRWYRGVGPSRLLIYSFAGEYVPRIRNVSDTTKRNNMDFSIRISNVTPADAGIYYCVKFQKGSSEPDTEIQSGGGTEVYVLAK
Method in brief: as §1

[4] = biological target: T4, cynomolgus SIRP-α D1 domain (cyno2) (cynomolgus monkey, UniProt Q5TFQ8 30-148 (human entry), limits assumed); experiment: SPR, Langmuir fit
T4 chain: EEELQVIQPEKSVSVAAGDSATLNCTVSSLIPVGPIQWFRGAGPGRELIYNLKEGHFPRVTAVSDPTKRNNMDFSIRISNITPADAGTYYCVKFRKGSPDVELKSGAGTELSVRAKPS
Method in brief: as §1

[5] = biological target: T5, human SIRP-α v2 D1 domain (human); experiment: SPR, Langmuir fit
T5 construct: also called human v2
Method in brief: as §1

[6] = biological target: T6, human SIRP-α v1 D1 domain (human, UniProt P78324 31-149); experiment: SPR, Langmuir fit
T6 construct: also called human v1
Method in brief: as §1

human SIRPβ isoform 1 [7] = biological target: T7, human SIRPβ isoform 1 (human, UniProt O00241 30-148); experiment: SPR, Langmuir fit
T7 construct: also called SIRPb; sirpb1
Method in brief: as §1

human SIRPβ isoform 1 [8] = biological target: T7, human SIRPβ isoform 1; experiment: SPR
Method in brief: as §1

[9] = biological target: T8, cynomolgus SIRP-α D1 domain (cyno1) (cynomolgus monkey, UniProt Q5TFQ8 30-148 (human entry), limits assumed); experiment: SPR, Langmuir fit
T8 chain: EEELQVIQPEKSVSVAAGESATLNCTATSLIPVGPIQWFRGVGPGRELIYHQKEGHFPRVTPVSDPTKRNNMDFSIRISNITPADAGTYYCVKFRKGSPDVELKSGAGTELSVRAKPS
Method in brief: as §1

[10] = biological target: T9, high affinity SIRP-α D1 variant CV1-3; experiment: SPR, Langmuir fit
T9 chain: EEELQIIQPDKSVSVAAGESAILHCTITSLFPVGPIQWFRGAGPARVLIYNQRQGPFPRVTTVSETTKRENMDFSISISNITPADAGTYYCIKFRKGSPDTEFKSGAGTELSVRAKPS
Method in brief: as §1

[11] = biological target: T10, cynomolgus SIRP-α D1 domain (SEQ ID NO:11) (cynomolgus, UniProt Q5TFQ8 30-148 (human entry), limits assumed); experiment: SPR, antibody immobilised on GLC chip
T10 construct: also called cyno1
T10 chain: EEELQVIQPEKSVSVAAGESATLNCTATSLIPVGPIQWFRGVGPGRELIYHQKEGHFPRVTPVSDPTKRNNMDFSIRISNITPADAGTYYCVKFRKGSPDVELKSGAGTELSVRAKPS
Procedure: (§2) All experiments were performed at 25° C. using a SPR-based ProteOn XPR36 biosensor (BioRad, Inc, Hercules, Calif.) equipped with GLC or NLC sensor chips. […] Purification was carried out by standard Protein A affinity column chromatography and eluted antibodies were stored in PBS buffer.
(§3) For the method using GLC chip, the analytes were injected and flowed over anti-SIRPα antibodies immobilized (˜1000 RUs) on GLC chips using Proteon™ Amine Coupling Kit. For the immobilization step, GLC chip was activated with EDAC/Sulpho-NHS 1:1 (Biorad) diluted 1/100 for 300 s at 25 μL/min. Anti-SIRPα antibodies were diluted to 80 nM concentration in 10 mM sodium acetate buffer pH 4.5 and immobilized to the chip at 30 μL/min for 50 s. Chip was inactivated with ethanolamine for 300 s at 25 μL/min. The analytes (e.g., SIRP-α from different species, SIRP-β, SIRP-γ) were injected in a “one-shot” kinetic mode at nominal concentrations of 100, 33, 11, 3.7, 1.2 and 0 nM. Association times were monitored for 90 s at 100 μL/min, and dissociation times were monitored for 1200 s. The surfaces were regenerated with a 2:1 v/v blend of Pierce IgG elution buffer/4M NaCl.

human SIRPγ isoform 1 [12] = biological target: T11, human SIRPγ isoform 1 (human, UniProt Q9P1W8 29-147); experiment: SPR, antibody immobilised on GLC chip
T11 construct: also called sirpg; sirp-g
Procedure: as §2, §3

[13] = biological target: T12, human SIRP-α v1 D1 domain (human, UniProt P78324 31-149); experiment: SPR, antibody immobilised on GLC chip
T12 construct: also called human v1; human α v1
Procedure: as §2, §3

[14] = biological target: T13, human SIRP-α v2 D1 domain (human); experiment: SPR, antibody immobilised on GLC chip
T13 construct: also called human v2; human α v2
Procedure: as §2, §3

T7 sequence (O00241 30-148 limits assumed): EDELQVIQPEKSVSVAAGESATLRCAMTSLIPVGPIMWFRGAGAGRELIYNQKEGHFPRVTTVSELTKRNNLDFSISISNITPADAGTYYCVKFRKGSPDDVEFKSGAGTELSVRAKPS

B1: S149 (scFv, V domains shown)
VH: DVQLVESGGGVVRPGESLRLSCAASGFTFSNFAMNWVRQAPGEGLEWVSLISVTATTYYADSVKGRFTISRDNSKNTLYLQMNSLRAEDTAVYYCAKVTWNNLFDYWGLGTLVTVSS
VL: EIVLTQSPGTLSLSPGERATLSCRASQPIDSYLAWYQQKPGQAPRLLIYNTVTRATGIPDRFSGSGSGTDFTLTINRLEPEDFAVYYCQHQYDWPPYIFGGGTKVEIK
notes: scFv-Fc format (VL-linker-VH on human IgG1 Fc)
B1: no binding (tested: Koff > 5 × 10^3 (legend)) (human SIRPγ isoform 1 [1]); no binding (tested: Koff > 5 × 10^3 (legend)) [2]; no binding (tested: Koff > 5 × 10^3 (legend)) [3]. The koff [4] was 0.00258 s⁻¹, the koff [5] was 0.000544 s⁻¹ and the koff [6] was 0.00415 s⁻¹. The koff (human SIRPβ isoform 1 [7]) was 0.000331 s⁻¹.

B2: S161 (scFv, V domains shown)
VH: DVQLVESGGGVVRPGESLRLSCAASGFTFSNFAMTWVRQAPGKGPEWVSLVSVTATTYYADSVKGRFTISRDNSKSTLYLQMNSLRAEDTAVYYCAKITWNNLFDYWGLGTLVTVSS
VL: EIVLTQSPGTLSLSPGERATLSCRASQTVGSKLAWYQQKPGQAPRLLIYDSSSRASGIPDRFSGSGSGTDFTLTISSLQSEDSAVYYCQQHNDWPPYTFGGGTKVEIK
notes: as for B1
B2: no binding (tested: Koff > 5 × 10^3 (legend)) (human SIRPγ isoform 1 [1]); no binding (tested: Koff > 5 × 10^3 (legend)) [2]; no binding (tested: Koff > 5 × 10^3 (legend)) [3]. It also gave a koff [4] of 0.00215 s⁻¹, a koff [5] of 0.000348 s⁻¹ and a koff [6] of 0.00337 s⁻¹. The koff (human SIRPβ isoform 1 [7]) was 0.00321 s⁻¹.

B3: S213 (scFv, V domains shown)
VH: DVQLVESGGGVVRPGESLRLSCEASGFTFRNYYMTWVRQAPGEGLEWVSTISDTGDTAYYADSVKGRFTISRDNSKNSLYLQMNSLRADDTAIYYCAKSWIWWTFFDYWGLGTLVTVSS
VL: ALTQPASVSANLGGTVEITCSGGNSNHYGWYQQKSPGSAPVTLIYADTNRPSNIPSRFSGSTSGSTTTLTITGVQAEDEAVYYCGGSSTGDGIFGAGTTLTVL
notes: also called clone 213
For B3, the binding result [3] was “no binding (tested: Koff > 5 × 10^3 (legend))”, the binding result (human SIRPβ isoform 1 [8]) was “no binding (tested: Koff > 5 × 10^3 (legend))” and the koff [4] was 0.00313 s⁻¹. The koff [5] was 0.000685 s⁻¹, the koff [9] was 0.0026 s⁻¹ and the koff [10] was 0.00482 s⁻¹.

B4: S214 (scFv, V domains shown)
VH: DVQLVESEGGVVRPGESLRLSCEASGFTFRNSYMTWVRQAPGEGLEWVSTISDTGDTAYYADSVKGRFTISRDNSKNSLYLQMNSLRAEDTAIYYCAKSWIWWTFFDYWGLGTLVTVSS
VL: ALTQPASVSANLGGTVEITCSGGNSNHYGWYQQKSPGSAPVTLIYADTNRPSNIPSRFSGSTSGSTSTLTITGVQAEDEAVYYCGGSSTGDGIFGAGTTLTVL
In the case of B4, the binding result [3] is reported as “no binding (tested: Koff > 5 × 10^3 (legend))”, the binding result (human SIRPβ isoform 1 [8]) is reported as “no binding (tested: Koff > 5 × 10^3 (legend))” and the koff [4] is reported as 0.00271 s⁻¹. The koff [5] was 0.000677 s⁻¹, the koff [9] was 0.00351 s⁻¹ and the koff [10] was 0.00453 s⁻¹.

B5: antibody 135 variant mut/mut (antibody, human IgG1, V domains shown)
VH: EVQLVESGGGVVQPGGSLRLSCAASGFSFSIYAVSWVRQAPGKGLEWVSTIGADDTYYADSVKGRFTISRDNSKNTLYLQMNSLRAEDTAVYYCAKDSTVGWSGDFFDYWGQGTLVTVSS
VL: EIVLTQSPATLSVSPGERVTLSCRASQNVRSDIAWYQQKPGQAPRLLIYAASSRDTGIPARFSGSGSGTDFTLTISSLQSEDFGVYYCQQYYDWPPFTFGGGTKVEIK
notes: Human IgG1 with L234A/L235A/G237A/N297A; Labels are in the order VL/VH
In the case of B5, the Kd [11] is reported as 0.127 nM, the Kd (human SIRPγ isoform 1 [12]) is reported as 0.733 nM and the Kd [13] is reported as 0.192 nM. The Kd [14] was 0.0175 nM.
